For series [1], the target named is engineered T. gorgonarius reverse-transcriptase lacking proof reading activity (3'-5' exonuclease) (TgoRTxo) (Thermococcus gorgonarius (engineered)) (UniProt P56689). The series can be described thus: cell-based or functional assay.
For series [2], the target named is T1, TgoRTxo (exonuclease-deficient engineered Tgo reverse transcriptase) (Thermococcus gorgonarius) (UniProt P56689).
T1 sequence: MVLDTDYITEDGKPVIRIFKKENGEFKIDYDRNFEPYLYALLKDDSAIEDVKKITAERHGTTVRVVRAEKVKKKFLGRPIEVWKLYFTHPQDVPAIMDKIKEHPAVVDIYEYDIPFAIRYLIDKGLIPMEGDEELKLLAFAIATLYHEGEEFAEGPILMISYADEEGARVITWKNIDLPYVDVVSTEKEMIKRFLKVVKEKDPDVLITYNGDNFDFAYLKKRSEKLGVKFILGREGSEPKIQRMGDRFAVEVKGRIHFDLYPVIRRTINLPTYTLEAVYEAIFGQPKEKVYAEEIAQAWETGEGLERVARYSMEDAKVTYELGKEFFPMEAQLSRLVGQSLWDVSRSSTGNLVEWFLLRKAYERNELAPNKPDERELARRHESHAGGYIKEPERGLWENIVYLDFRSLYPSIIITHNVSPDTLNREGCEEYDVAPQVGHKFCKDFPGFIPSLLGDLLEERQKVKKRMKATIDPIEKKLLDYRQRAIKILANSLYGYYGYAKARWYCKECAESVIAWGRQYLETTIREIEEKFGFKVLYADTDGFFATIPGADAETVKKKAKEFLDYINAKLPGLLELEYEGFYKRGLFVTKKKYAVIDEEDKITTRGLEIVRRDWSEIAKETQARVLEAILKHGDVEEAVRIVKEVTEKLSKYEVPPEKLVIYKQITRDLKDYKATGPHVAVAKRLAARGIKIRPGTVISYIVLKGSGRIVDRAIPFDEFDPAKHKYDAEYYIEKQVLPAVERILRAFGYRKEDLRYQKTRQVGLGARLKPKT
To be noted: RT efficiency without KPCNA; Mg, dNTPs; about 45% with 1 uM KPCNA.

Turning to “T. kodakarensis proliferating cell nuclear antigen (KPCNA) (from UniProt Q5JF32 2-249)”, in series [1], the RT efficiency of TgoRTxo at 3.5 uM KPCNA compared to no KPCNA came to 3 fold; the efficiency of reverse transcription (fold increase, KPCNA raised from 0 to 1 uM) is 4 fold; the reverse transcriptase efficiency of TgoRTxo in the absence of KPCNA (baseline) was found to be 10%; the reverse transcriptase efficiency of TgoRTxo with 1 uM KPCNA came to 45%.
~600 nt RNA template with DNA primer yielded an activity in series [2] of 10%.
